Key:
[1] = molecular target: CodY(L3S), leucine 3 to serine mutant of CodY from Bacillus subtilis (Bacillus subtilis) (UniProt P39779); experiment: crystal structure; CodY(L3S) at 18 mg/ml with 20 mM isoleucine; 15% PEG 5000, 5% tacsimate, 0.1 M HEPES pH 7.5; four molecules per asymmetric unit
[2] = molecular target: the molecule itself; experiment: SEC-MALLS; 100 ul of 1 mg/ml (~35 uM) protein on Superdex S200 10/300 in 50 mM Tris-HCl pH 7.5, 150 mM NaCl, with or without 10 mM isoleucine (no effect on the trace); no tetramers seen
[3] = molecular target: the molecule itself; experiment: crystal structure; unliganded CodY, three crystal forms (A, B, C) grown from 10-20 mg/ml protein; form B with 10 mM GTP and form C with 5 mM GTPgammaS present but not seen bound; tetramer in all forms
[4] = molecular target: T1, CodY (wild type, C-terminal His5) (Bacillus subtilis, UniProt P39779 2-259); experiment: EMSA; 10 mM Ile/Leu/Val; only C1 complex; EMSA: 20 mM Tris-Cl pH 8.0, 50 mM KCl, 2 mM MgCl2, 5% glycerol, 0.5 mM EDTA, 1 mM DTT, 0.05% Nonidet P, salmon sperm DNA (printed 40-25 ug/ml), room temperature 16 min, +/-10 mM ILV; details: protein: recombinant; tags: C-terminal His5; chain copies: 2; label: 32P 5' on one strand; blunt
T1 sequence: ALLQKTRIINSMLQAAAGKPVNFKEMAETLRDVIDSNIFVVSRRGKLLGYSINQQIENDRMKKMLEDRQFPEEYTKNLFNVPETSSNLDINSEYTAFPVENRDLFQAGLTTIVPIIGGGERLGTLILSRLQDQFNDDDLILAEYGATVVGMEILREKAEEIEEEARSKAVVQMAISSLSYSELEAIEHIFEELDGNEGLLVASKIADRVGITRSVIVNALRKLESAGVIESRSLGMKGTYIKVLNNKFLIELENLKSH

[5] = molecular target: T1, CodY (wild type, C-terminal His5); experiment: EMSA; 10 mM Ile/Leu/Val; apparent Kd, CodY monomer; C2 predominant; EMSA: 20 mM Tris-Cl pH 8.0, 50 mM KCl, 2 mM MgCl2, 5% glycerol, 0.5 mM EDTA, 1 mM DTT, 0.05% Nonidet P, salmon sperm DNA (printed 40-25 ug/ml), room temperature 16 min, +/-10 mM ILV; details: protein: recombinant, tags: C-terminal His5, chain copies: 2, blunt

Molecule: CodY(L3S), leucine 3 to serine mutant of CodY from Bacillus subtilis (from UniProt P39779 1-259) (natural protein)
- stoichiometry N [1]: 4

B1: CodY from Bacillus subtilis, full-length, wild type (natural protein)
chain: GPAMALLQKTRIINSMLQAAAGKPVNFKEMAETLRDVIDSNIFVVSRRGKLLGYSINQQIENDRMKKMLEDRQFPEEYTKNLFNVPETSSNLDINSEYTAFPVENRDLFQAGLTTIVPIIGGGERLGTLILSRLQDQFNDDDLILAEYGATVVGMEILREKAEEIEEEARSKAVVQMAISSLSYSELEAIEHIFEELDGNEGLLVASKIADRVGITRSVIVNALRKLESAGVIESRSLGMKGTYIKVLNNKFLIELENLKSH
notes: what is left of the tag after cleavage with human rhinovirus 3C protease, printed as Gly-Pro-Ala; CodY, Bacillus subtilis, 259 amino acid residues, calculated mass 29 kDa; construct pET-YSBLIC-BsCodY; also called unliganded CodY; wild-type CodY; source: E. coli BL21(DE3), purified (nickel chelation, 3C protease cleavage, second nickel column, heparin, Superdex 200); not shown: polyhistidine, …
- stoichiometry N [2]: 2
- stoichiometry N [3]: 4

B2: BcaPp8(19) (dsDNA)
DNA 1: CGAATTTTCTGAAAATTTT
DNA 2: AAAATTTTCAGAAAATTCG
- binding result [4]: binds

B3: BcaPp8(31) (dsDNA)
DNA 1: TAAAAAATTTGTCGAATTTTCTGAAAATTTT
DNA 2: AAAATTTTCAGAAAATTCGACAAATTTTTTA
- Kd ([5]; label: 32P 5' on one strand): 1.6 nM

B4: BcaPp8(36) (dsDNA)
DNA 1: CAAAATAAAAAATTTGTCGAATTTTCTGAAAATTTT
DNA 2: AAAATTTTCAGAAAATTCGACAAATTTTTTATTTTG
- Kd ([5]; label: 32P 5' on one strand in EMSA): 1.6 nM

Source: PMC5314169, “Structure of the Branched-chain Amino Acid and GTP-sensing Global Regulator, CodY, from Bacillus subtilis*” (The Journal of Biological Chemistry, 2016)
